# Source: paper PMC9482650, “Quantitative fragmentomics allow affinity mapping of interactomes” (Nature Communications, 2022)
# T1: APBA2_1, Q99767
# T1 sequence (Q99767 563-664, limits assumed, looked up): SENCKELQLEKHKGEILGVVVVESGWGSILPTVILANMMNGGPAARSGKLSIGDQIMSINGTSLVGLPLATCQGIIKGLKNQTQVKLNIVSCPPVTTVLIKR
# T2: ARHGEF11, O15085
# T2 sequence (O15085 42-136, limits assumed, looked up): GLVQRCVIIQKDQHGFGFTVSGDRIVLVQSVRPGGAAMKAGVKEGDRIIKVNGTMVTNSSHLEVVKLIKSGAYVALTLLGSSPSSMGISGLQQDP
# T3: CARD11, Q9BXL7
# T3 sequence (Q9BXL7 662-765, limits assumed, looked up): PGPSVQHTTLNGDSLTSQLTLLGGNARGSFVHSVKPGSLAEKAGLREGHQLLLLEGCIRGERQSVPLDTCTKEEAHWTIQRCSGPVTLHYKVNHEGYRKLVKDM
# T4: GRIP1_2, Q9Y3R0
# T4 sequence (Q9Y3R0 145-248, limits assumed, looked up): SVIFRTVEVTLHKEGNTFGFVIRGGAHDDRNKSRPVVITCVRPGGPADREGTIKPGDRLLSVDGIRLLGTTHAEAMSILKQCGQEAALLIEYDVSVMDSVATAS
# T5: GRIP1_5, Q9Y3R0
# T5 sequence (Q9Y3R0 568-668, limits assumed, looked up): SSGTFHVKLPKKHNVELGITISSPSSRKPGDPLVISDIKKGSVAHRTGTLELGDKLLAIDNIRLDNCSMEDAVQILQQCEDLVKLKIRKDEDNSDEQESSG
# T6: HTRA4, P83105
# T6 sequence (P83105 378-476, limits assumed, looked up): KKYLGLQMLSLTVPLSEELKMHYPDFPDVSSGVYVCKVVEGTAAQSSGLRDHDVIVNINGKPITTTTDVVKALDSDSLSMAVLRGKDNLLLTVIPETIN
# T7: LNX2_2, Q8N448
# T7 sequence (Q8N448 334-432, limits assumed, looked up): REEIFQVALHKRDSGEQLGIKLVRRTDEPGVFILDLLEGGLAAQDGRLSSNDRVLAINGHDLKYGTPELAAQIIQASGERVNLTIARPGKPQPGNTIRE
# T8: LRRC7, Q96NW7
# T8 sequence (Q96NW7 1440-1537, limits assumed, looked up): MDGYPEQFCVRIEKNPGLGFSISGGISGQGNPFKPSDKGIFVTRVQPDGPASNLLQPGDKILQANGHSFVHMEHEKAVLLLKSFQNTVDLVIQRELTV
# T9: MPDZ_10, O75970
# T9 sequence (O75970 1624-1722, limits assumed, looked up): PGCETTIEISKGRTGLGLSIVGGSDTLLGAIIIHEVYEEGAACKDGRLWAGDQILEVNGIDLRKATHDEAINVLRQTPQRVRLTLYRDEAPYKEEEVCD
# T10: NHERF3_1, Q5T2W1
# T10 sequence (Q5T2W1 4-100, limits assumed, looked up): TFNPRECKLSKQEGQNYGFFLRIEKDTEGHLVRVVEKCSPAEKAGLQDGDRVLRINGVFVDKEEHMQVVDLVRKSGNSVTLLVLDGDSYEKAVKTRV
# T11: PCLO, Q9Y6V0
# T11 sequence (Q9Y6V0 4491-4600, limits assumed, looked up): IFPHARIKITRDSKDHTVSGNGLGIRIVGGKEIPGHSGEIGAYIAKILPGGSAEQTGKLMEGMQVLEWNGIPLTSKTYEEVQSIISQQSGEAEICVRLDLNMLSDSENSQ
# T12: SHANK1, Q9Y566
# T12 sequence (Q9Y566 658-767, limits assumed, looked up): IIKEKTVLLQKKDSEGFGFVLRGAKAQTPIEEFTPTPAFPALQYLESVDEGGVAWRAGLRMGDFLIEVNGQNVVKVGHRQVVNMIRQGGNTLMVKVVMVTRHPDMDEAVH
# B1: VANGL1, Q8TAA9 (peptide)
# chain: VLRLQSETSV
# Biological target: T1, APBA2_1, Q99767
# Experiment: holdup assay
# Design: key: below the threshold = too weak to quantify, mostly under pKd 3.1 to 4
# Conditions: plain residues with an end cap or a label only (N-terminal biotin on a linker: ttds)
row,pKd,Binder
1,below the threshold,B1

# Biological target: T2, ARHGEF11, O15085
# Experiment: holdup assay
# Design: key: below the threshold = too weak to quantify, mostly under pKd 3.1 to 4
# Conditions: plain residues with an end cap or a label only (N-terminal biotin on a linker: ttds)
row,pKd,Binder
1,below the threshold,B1

# Biological target: ARHGEF12, Q9NZN5-2
# Sequence (Q9NZN5 other isoform, or with tags, fused parts or gaps): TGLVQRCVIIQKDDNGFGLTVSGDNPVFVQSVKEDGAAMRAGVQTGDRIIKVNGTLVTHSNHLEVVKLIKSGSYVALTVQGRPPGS
# Experiment: holdup assay
# Design: key: below the threshold = too weak to quantify, mostly under pKd 3.1 to 4
# Conditions: plain residues with an end cap or a label only (N-terminal biotin on a linker: ttds)
row,pKd,Binder
1,3.7,B1

# Biological target: T3, CARD11, Q9BXL7
# Experiment: holdup assay
# Design: key: below the threshold = too weak to quantify, mostly under pKd 3.1 to 4
# Conditions: plain residues with an end cap or a label only (N-terminal biotin on a linker: ttds)
row,pKd,Binder
1,below the threshold,B1

# Biological target: CASK, O14936
# Sequence (O14936 487-570): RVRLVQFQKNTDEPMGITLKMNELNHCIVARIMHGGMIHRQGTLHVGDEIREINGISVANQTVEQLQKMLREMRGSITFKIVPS
# Experiment: holdup assay
# Design: key: below the threshold = too weak to quantify, mostly under pKd 3.1 to 4
# Conditions: plain residues with an end cap or a label only (N-terminal biotin on a linker: ttds)
row,pKd,Binder
1,below the threshold,B1

# Biological target: GRASP, Q7Z6J2
# Sequence (Q7Z6J2 96-193): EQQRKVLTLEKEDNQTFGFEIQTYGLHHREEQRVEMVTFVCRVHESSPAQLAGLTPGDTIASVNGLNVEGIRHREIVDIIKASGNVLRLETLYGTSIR
# Experiment: holdup assay
# Design: key: below the threshold = too weak to quantify, mostly under pKd 3.1 to 4
# Conditions: plain residues with an end cap or a label only (N-terminal biotin on a linker: ttds)
row,pKd,Binder
1,below the threshold,B1

# Biological target: GRID2IP_1, A4D2P6
# Sequence (A4D2P6 1-87): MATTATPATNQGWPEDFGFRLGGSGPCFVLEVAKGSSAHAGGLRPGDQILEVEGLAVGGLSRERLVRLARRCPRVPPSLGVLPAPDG
# Experiment: holdup assay
# Design: key: below the threshold = too weak to quantify, mostly under pKd 3.1 to 4
# Conditions: plain residues with an end cap or a label only (N-terminal biotin on a linker: ttds)
row,pKd,Binder
1,below the threshold,B1

# Biological target: GRID2IP_2, A4D2P6
# Sequence (A4D2P6 272-370): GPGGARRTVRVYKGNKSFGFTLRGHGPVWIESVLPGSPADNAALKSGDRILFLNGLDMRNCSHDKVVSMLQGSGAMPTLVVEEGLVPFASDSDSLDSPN
# Experiment: holdup assay
# Design: key: below the threshold = too weak to quantify, mostly under pKd 3.1 to 4
# Conditions: plain residues with an end cap or a label only (N-terminal biotin on a linker: ttds)
row,pKd,Binder
1,below the threshold,B1

# Biological target: T4, GRIP1_2, Q9Y3R0
# Experiment: holdup assay
# Design: key: below the threshold = too weak to quantify, mostly under pKd 3.1 to 4
# Conditions: plain residues with an end cap or a label only (N-terminal biotin on a linker: ttds)
row,pKd,Binder
1,below the threshold,B1

# Biological target: T5, GRIP1_5, Q9Y3R0
# Experiment: holdup assay
# Design: key: below the threshold = too weak to quantify, mostly under pKd 3.1 to 4
# Conditions: plain residues with an end cap or a label only (N-terminal biotin on a linker: ttds)
row,pKd,Binder
1,below the threshold,B1

# Biological target: GRIP2_3, Q9C0E4
# Sequence (Q9C0E4 238-339): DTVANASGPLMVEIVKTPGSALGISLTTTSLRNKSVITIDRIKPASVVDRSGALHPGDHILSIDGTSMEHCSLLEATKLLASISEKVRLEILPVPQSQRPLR
# Experiment: holdup assay
# Design: key: below the threshold = too weak to quantify, mostly under pKd 3.1 to 4
# Conditions: plain residues with an end cap or a label only (N-terminal biotin on a linker: ttds)
row,pKd,Binder
1,below the threshold,B1

# Biological target: T6, HTRA4, P83105
# Experiment: holdup assay
# Design: key: below the threshold = too weak to quantify, mostly under pKd 3.1 to 4
# Conditions: plain residues with an end cap or a label only (N-terminal biotin on a linker: ttds)
row,pKd,Binder
1,below the threshold,B1

# Biological target: Inadl_5, Q8NI35
# Sequence (Q8NI35 673-780): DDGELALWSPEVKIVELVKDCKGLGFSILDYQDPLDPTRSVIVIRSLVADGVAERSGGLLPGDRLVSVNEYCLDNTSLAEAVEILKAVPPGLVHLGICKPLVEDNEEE
# Experiment: holdup assay
# Design: key: below the threshold = too weak to quantify, mostly under pKd 3.1 to 4
# Conditions: plain residues with an end cap or a label only (N-terminal biotin on a linker: ttds)
row,pKd,Binder
1,below the threshold,B1

# Biological target: Inadl_8, Q8NI35
# Sequence (Q8NI35 1425-1530): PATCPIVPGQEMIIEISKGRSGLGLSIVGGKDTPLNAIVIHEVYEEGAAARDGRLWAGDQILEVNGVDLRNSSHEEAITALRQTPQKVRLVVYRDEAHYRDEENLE
# Experiment: holdup assay
# Design: key: below the threshold = too weak to quantify, mostly under pKd 3.1 to 4
# Conditions: plain residues with an end cap or a label only (N-terminal biotin on a linker: ttds)
row,pKd,Binder
1,below the threshold,B1

# Biological target: LDB3, O75112
# Sequence (O75112 1-94): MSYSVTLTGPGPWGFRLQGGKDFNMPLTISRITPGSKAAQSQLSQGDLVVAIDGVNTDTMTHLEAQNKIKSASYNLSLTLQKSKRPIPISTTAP
# Experiment: holdup assay
# Design: key: below the threshold = too weak to quantify, mostly under pKd 3.1 to 4
# Conditions: plain residues with an end cap or a label only (N-terminal biotin on a linker: ttds)
row,pKd,Binder
1,below the threshold,B1

# Biological target: T7, LNX2_2, Q8N448
# Experiment: holdup assay
# Design: key: below the threshold = too weak to quantify, mostly under pKd 3.1 to 4
# Conditions: plain residues with an end cap or a label only (N-terminal biotin on a linker: ttds)
row,pKd,Binder
1,4.15,B1

# Biological target: T8, LRRC7, Q96NW7
# Experiment: holdup assay
# Design: key: below the threshold = too weak to quantify, mostly under pKd 3.1 to 4
# Conditions: plain residues with an end cap or a label only (N-terminal biotin on a linker: ttds)
row,pKd,Binder
1,below the threshold,B1

# Biological target: MAGI1_2, Q96QZ7
# Sequence (Q96QZ7 456-580): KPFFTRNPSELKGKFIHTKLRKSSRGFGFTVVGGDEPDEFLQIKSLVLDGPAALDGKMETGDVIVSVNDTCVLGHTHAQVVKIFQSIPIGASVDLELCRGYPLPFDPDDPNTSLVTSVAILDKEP
# Experiment: holdup assay
# Design: key: below the threshold = too weak to quantify, mostly under pKd 3.1 to 4
# Conditions: plain residues with an end cap or a label only (N-terminal biotin on a linker: ttds)
row,pKd,Binder
1,4.37,B1

# Biological target: MAGI2_4, Q86UL8
# Sequence (Q86UL8 772-865): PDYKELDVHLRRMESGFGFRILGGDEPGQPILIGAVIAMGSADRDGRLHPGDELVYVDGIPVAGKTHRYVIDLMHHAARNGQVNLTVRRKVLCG
# Experiment: holdup assay
# Design: key: below the threshold = too weak to quantify, mostly under pKd 3.1 to 4
# Conditions: plain residues with an end cap or a label only (N-terminal biotin on a linker: ttds)
row,pKd,Binder
1,4.42,B1

# Biological target: T9, MPDZ_10, O75970
# Experiment: holdup assay
# Design: key: below the threshold = too weak to quantify, mostly under pKd 3.1 to 4
# Conditions: plain residues with an end cap or a label only (N-terminal biotin on a linker: ttds)
row,pKd,Binder
1,below the threshold,B1

# Biological target: T10, NHERF3_1, Q5T2W1
# Experiment: holdup assay
# Design: key: below the threshold = too weak to quantify, mostly under pKd 3.1 to 4
# Conditions: plain residues with an end cap or a label only (N-terminal biotin on a linker: ttds)
row,pKd,Binder
1,3.98,B1

# Biological target: NHERF4_2, Q86UT5
# Sequence (Q86UT5 220-308): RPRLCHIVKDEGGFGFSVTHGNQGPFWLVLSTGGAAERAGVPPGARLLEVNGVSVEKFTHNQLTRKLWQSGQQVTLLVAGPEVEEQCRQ
# Experiment: holdup assay
# Design: key: below the threshold = too weak to quantify, mostly under pKd 3.1 to 4
# Conditions: plain residues with an end cap or a label only (N-terminal biotin on a linker: ttds)
row,pKd,Binder
1,below the threshold,B1

# Biological target: T11, PCLO, Q9Y6V0
# Experiment: holdup assay
# Design: key: below the threshold = too weak to quantify, mostly under pKd 3.1 to 4
# Conditions: plain residues with an end cap or a label only (N-terminal biotin on a linker: ttds)
row,pKd,Binder
1,below the threshold,B1

# Biological target: PTPN3, P26045
# Sequence (P26045 505-587): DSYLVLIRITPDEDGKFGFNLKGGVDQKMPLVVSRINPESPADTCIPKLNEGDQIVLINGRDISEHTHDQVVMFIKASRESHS
# Experiment: holdup assay
# Design: key: below the threshold = too weak to quantify, mostly under pKd 3.1 to 4
# Conditions: plain residues with an end cap or a label only (N-terminal biotin on a linker: ttds)
row,pKd,Binder
1,4.97,B1

# Biological target: T12, SHANK1, Q9Y566
# Experiment: holdup assay
# Design: key: below the threshold = too weak to quantify, mostly under pKd 3.1 to 4
# Conditions: plain residues with an end cap or a label only (N-terminal biotin on a linker: ttds)
row,pKd,Binder
1,3.77,B1
